The results in this text go back to patent publication US20200087363A1 (IMMATICS BIOTECHNOLOGIES, published 2020).

The target in this test is T1, HLA-B*44:05 (human).
T1 construct: also called peptide-receptive MHC class I molecule
Kind of test: UV peptide exchange, anti-b2m ELISA. The essentials: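 Peptide-receptive HLA-B*44:05 monomers after UV-induced exchange were diluted 100-fold and captured on streptavidin-coated plates for 1 h at 37 °C. Bound complexes were detected with 2 µg/ml HRP-anti-β2m (1 h, 37 °C) and TMB, read at 450 nm. β2m signal reflects peptide-stabilized complex yield.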

With QETNKVETY, the peptide exchange yield lay within 50 to 75%. The molecule YQENPRAAW displayed a peptide exchange yield of 20 to 50%.
